# Laboratory results taken from article PMC5061722.
# How the values were obtained:
# Experiment in all cases: SEC
# [1] = molecular target: EpsE-XcpR CM-Hcp1 chimera fusion (UniProt P37093)
# [2] = molecular target: full-length EpsE-Hcp1 fusion (pET21(d)epsE(1-503)-8aa-hcp1-his6) (UniProt P37093)
# [3] = molecular target: truncated ΔN1-EpsE-Hcp1 fusion (pET21(d)epsE(100-503)-8aa-hcp1-his6) (UniProt P37093)
substance,measurement,setting,value
EpsE-XcpR CM-Hcp1 chimera fusion (from UniProt P37093),stoichiometry N,[1],6
full-length EpsE-Hcp1 fusion (pET21(d)epsE(1-503)-8aa-hcp1-his6) (from UniProt P37093 1-503),stoichiometry N,[2],6
truncated ΔN1-EpsE-Hcp1 fusion (pET21(d)epsE(100-503)-8aa-hcp1-his6) (from UniProt P37093 100-503),stoichiometry N,[3],6
